In PMC7195491 (2020):

T1: DIP-α (Drosophila melanogaster)
T1 chain: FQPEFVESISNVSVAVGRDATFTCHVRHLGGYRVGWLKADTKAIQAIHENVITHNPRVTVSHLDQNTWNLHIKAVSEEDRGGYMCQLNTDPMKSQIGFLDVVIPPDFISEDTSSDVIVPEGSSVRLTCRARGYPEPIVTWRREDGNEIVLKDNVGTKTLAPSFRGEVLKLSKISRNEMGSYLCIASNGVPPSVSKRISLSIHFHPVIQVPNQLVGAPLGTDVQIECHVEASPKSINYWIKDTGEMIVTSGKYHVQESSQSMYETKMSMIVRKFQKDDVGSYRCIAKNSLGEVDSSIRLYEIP


Target: T1, DIP-α
Experiment: SPR

Binder	Kd
Dpr11 K31V (domain or fragment) PYLDGYATSNVTTQIGTHAYLPCRVKQLGNKSVSWIRLRDGHILTVDRAVFIADQRFLAIKQPDKYWTLQIKYVQARDAGSYECQVSTEPVVSARVQLQVVVPRTEILGEPDRYVKAGSNVVLRCIVRGALEPPTFIMWYHGAEQLAADSRRHRTQLDPNLPEASGEGQSTIGSLIIESAKKRDTGNYTCSPSNSPSATVT	> 300 µM
Dpr11 K31V,E29Q (domain or fragment) PYLDGYATSNVTTQIGTHAYLPCRVKQLGNKSVSWIRLRDGHILTVDRAVFIADQRFLAIKQPDKYWTLQIKYVQARDAGSYECQVSTQPVVSARVQLQVVVPRTEILGEPDRYVKAGSNVVLRCIVRGALEPPTFIMWYHGAEQLAADSRRHRTQLDPNLPEASGEGQSTIGSLIIESAKKRDTGNYTCSPSNSPSATVT	> 300 µM
Dpr11 (domain or fragment) PYLDGYATSNVTTQIGTHAYLPCRVKQLGNKSVSWIRLRDGHILTVDRAVFIADQRFLAIKQPDKYWTLQIKYVQARDAGSYECQVSTEPKVSARVQLQVVVPRTEILGEPDRYVKAGSNVVLRCIVRGALEPPTFIMWYHGAEQLAADSRRHRTQLDPNLPEASGEGQSTIGSLIIESAKKRDTGNYTCSPSNSPSATVT	> 500 µM
Dpr10 V31K (domain or fragment) YQRQSVSNNNHNNAEAKPTHAPPSHYPHGHKWNEPYFDLTMPRNITSLVGKSAYLGCRVKHLGNKTVAWIRHRDLHILTVGTYTYTTDQRFQTSYHRDIDEWTLQIKWAQQRDAGVYECQISTQPKRSYSVNLNIVDLIDAETSDIMQQYYNDDAFYIAENRVYQSSNDEFAGMFGPIQTVAVPTATILGGPDLYVDKGSTINLTCIIKFSPEPPTHIFWYHQDKVLSEETSGGRLKFKTIKSEETKSILLIYDADLLHSGKYSCYPSNTEIASIR	11.3 µM

More lines, in order of falling Kd, values ahead:

Kd	Binder
29.2 µM	Dpr10 V31K Q29E (domain or fragment) YQRQSVSNNNHNNAEAKPTHAPPSHYPHGHKWNEPYFDLTMPRNITSLVGKSAYLGCRVKHLGNKTVAWIRHRDLHILTVGTYTYTTDQRFQTSYHRDIDEWTLQIKWAQQRDAGVYECQISTEPKRSYSVNLNIVDLIDAETSDIMQQYYNDDAFYIAENRVYQSSNDEFAGMFGPIQTVAVPTATILGGPDLYVDKGSTINLTCIIKFSPEPPTHIFWYHQDKVLSEETSGGRLKFKTIKSEETKSILLIYDADLLHSGKYSCYPSNTEIASIR
1.3 µM	Dpr10 (domain or fragment) YQRQSVSNNNHNNAEAKPTHAPPSHYPHGHKWNEPYFDLTMPRNITSLVGKSAYLGCRVKHLGNKTVAWIRHRDLHILTVGTYTYTTDQRFQTSYHRDIDEWTLQIKWAQQRDAGVYECQISTQPVRSYSVNLNIVDLIDAETSDIMQQYYNDDAFYIAENRVYQSSNDEFAGMFGPIQTVAVPTATILGGPDLYVDKGSTINLTCIIKFSPEPPTHIFWYHQDKVLSEETSGGRLKFKTIKSEETKSILLIYDADLLHSGKYSCYPSNTEIASIR
